This note sets out measurements from patent publication US20250297232A1, “BACTERIAL MYELOPEROXIDASE-CATALASE AND APPLICATIONS THEREOF” (priority 2022, published 2025).

Holding throughout (format): biochemical
Experiment [1] in a line: Steady-state kinetics by stopped-flow, H2O2 range at fixed (pseudo)-halogen ions. The following applies: wt RbMPO 267 nM. As to the method: For the halides Cl^− and Br^−, the ranges were not performed at halide saturation but at 500 and 100 mM respectively (data not shown).
The nature of experiment [2]: Pre-steady state: return of wt RbMPO to its native state, I^− range. As to conditions: from pre-steady state return to native state with I^−, SCN^−, Br^−, Cl^−. As to the method: Kinetic parameters under pre-steady-state condition were performed with a Biologic SFM400 stopped-flow at 412 nm, 37° C. and with 50 mM sodium phosphate buffer at pH7.5. […] An exponential linear fit was applied to each kinetic using the following formula: […]
The return of the enzyme to its native state was studied by the impact of increasing concentrations of (pseudo)-halides substrates on compound I (FIG. 9B). […] It is the time difference (s) between the two characteristic steps that allowed the calculation of the values of the Vreturn(μM^−1.s^−1) values: […]

Experiment [3] is described as follows: Steady-state kinetics by stopped-flow, NaBr (Tau-NHBr formation, 289 nm). As to conditions: Br^− 500 mM, 267 nM RbMPO, H2O2 79 μM. How it is done: pH- and temperature-dependent studies were carried out for each substrate.
These temperatures were reached by using a stopped-flow coupled to a cryostat.
For temperature and pH measurements, RbMPO was set at the same concentration as in the determination of steady state kinetics parameters.

B1: wt RbMPO: novel bacterial heme peroxidase (myeloperoxidase-catalase) of about 78 KDa from Rhodopirellula baltica, SEQ ID NO: 1, produced recombinantly in E. coli (protein, listed as Rhodopirellula baltica)
chain: MLFWSKRTRKHPGRKRRRLRSEQLESRQLLAADFGGYRHNIYDAEDVNDDGRVSAIDALLVINAMTSETSRDENVFTDVNGDGRRSALDALRVINRIERGDVFPIDTSGDEDLNTLLPEMPSEVRSIDGSGNNPNDHLWGSVGQRLIRMAPAAYGDGISTLAGANRPSAREVSNVLSAMNTSQVLNDRGLSAFVYVWGQFIDHDLGLTESDEHGEAIDISVPEGDLWFDPMGSGEAVIPMTRTPIADGTGTSVGNPAQQFNQITAFIDGSMVYGSDAATAERLRTFAGGRLAISDNGLLPMDESGMVIAGDVRASENVGLTAIQTLFVREHNRLADEIFAADPEATDEEIYQRARLVVASLIQSITYNEFLPALLGQRAMDSYRGYDASVNPGIANEFSTAAFRLGHSTLRDEVGFMSNDGRESKDEMELKDAFFHASMLEETGIDSLLKFDASVQAQEIDLAVVDSLRNFLFGPPGAGGLDLVAMNIQRGRDHGLSDYNTTRQAYGLDRVETFDQITGDVELQQKLASLYGTVDNIDLWVGLMAEDHQHDASVGELTGLIIADQFQRTRDGDRFFYKNVLTDSEVESIERSTLADLIERNTSVDGLQENVFFMQVELRGRVILASSIPPNTMPSEVREEEIRGVSGMAIELIDASGKLVDSTVSDQHGNYRFRALSETGDYQVRLSESGEAMDVLVAHGAERIRGLDFIVLA
Turning to B1, the KMapp was determined as 0.23 ± 0.21 mM in experiment [1] (Br (100 mM)) and 0.12 ± 0.04 mM in experiment [1] (SCN (5 mM)). For the same molecule, in experiment [2], the substrate specificity entry was “I^−>SCN^−>Br^− Cl^−”. The kss in experiment [3] (37° C., pH 4) was 0 ± 0 s⁻¹; in experiment [3] (37° C., pH 5) it was 1.5 ± 0.004 s⁻¹; in experiment [3] (37° C., pH 6), 14.5 ± 0.03 s⁻¹; in experiment [3] (37° C., pH 7), 11.0 ± 0.02 s⁻¹; in experiment [3] (37° C., pH 8) it was 4.8 ± 0.01 s⁻¹; in experiment [3] (37° C., pH 9) it was 1.3 ± 0.004 s⁻¹. Moreover, the kss in experiment [3] (37° C., pH 10) is 0.8 ± 0.007 s⁻¹; in experiment [3] (pH 7.5, 10° C.), 9.5 ± 0.01 s⁻¹; in experiment [3] (pH 7.5, 20° C.), 23.4 ± 0.02 s⁻¹; in experiment [3] (pH 7.5, 30° C.), 24.8 ± 0.02 s⁻¹; in experiment [3] (pH 7.5, 37° C.), 19.5 ± 0.01 s⁻¹; in experiment [3] (pH 7.5, 40° C.), 29.1 ± 0.02 s⁻¹. Moreover, the kss in experiment [3] (pH 7.5, 50° C.) is 21.1 ± 0.01 s⁻¹; in experiment [3] (pH 7.5, 60° C.), 37.8 ± 0.03 s⁻¹.
